Assay results from the DeepSol protein solubility set.

Experiment: soluble on expression in E. coli; label from the status in PepcDB or PDB records

| Sequence | soluble on expression in E. coli |
| --- | --- |
| MTLLTVKHLTITDTWTDQPLVSDVNFTLTKGETLGVIGESGSGKSITCKSIIGLNPERLGVTGEIIFDGTSMLSLSESQLKKYRGKDIAMVMQQGSRAFDPSTTVGKQMFETMKVHTSMSTQEIEKTLIEYMDYLSLKDPKRILKSYPYMLSGGMLQRLMIALALALKPKLIIADEPTTALDTITQYDVLEAFIDIKKHFDCAMIFISHDLTVINKIADRVVVMKNGQLIEQGTRESVLHHPEHVYTKYLLSTKKKINDHFKHVMRGDVHD | not soluble |
| MTLMGFRVKKVRNHVLWDKENDDRNAFTVIIGNNGCGKTELLIDTCNKYHSYYTSALLDKDTHVASAVHYLREDFSPHNWKTVEREYGHRLPRKLIAASTSQFEKFKANWSVRNDLVPSGFYAYIGSKPYMPSLSPSTRIASKAIQQLLGAEYFEERKHKALVGFLSKFDFGQKLLLKFELTFPNEDLENIQNQSLTEPETQLILKNAYIEHDEMELVELLGYCERIIEAPAFALTVGNQNLNLIHLKGSEQKPFSKLIISRMLRAGLITLSSIQTMKDKSLINDQSTVNIESSAISSLSKRSSGEQ | not soluble |
| MTLSEEVASLQRAAHDLMYLGMDGSPIYSDDLSRRNNEVYRLTTTLYNSGVQGSTVEEQASVCLALLMGYNASFIDHGEKREHVQKILDRCWDILDTLPASLLKLRLLTACYGEVFDEPLADEARAIIASWDSVSLTTEQQEAINEFQTVVDNPYPWEYVEE | not soluble |
| MTLVVPFDGSELAEAALVRAAEFGTVFEEDVLAVSVIRNGNAKYAREHDWIGPNEDFDLEAVVTSLHEQVIDLCPSSDFRHTVVDRYAPAGAVAKAIRKLAKREDASMVFIGSENAGHLVTSISSVGGSIASDDAYDVVIVRHR | not soluble |
| MTMETVESQHDGSITASLTESKSAHVQTQTGQNSIPALAQVAAIAETDESAESGGVIDSHKRREILSRRPSYRKILNELSSDVPGVPKIEEERSEEEGTPPSIATMAVPTSIYQTSTGQYIAIAQGGTIQISNPGSDGVQGLQALTMTNSGAPPPGATIVQYAAQSADGTQQFFVPGSQVVVQAATGDMPTYQIRAPTAALPQGVVMAASPGSLHSPQQLAEEATRKRELRLMKNREAAKECRRRKKE | soluble |
| MTMPDYDLIAILGPTASGKTPFAAALAAELNTEIISADSRQIYRGMDLGTGKDLEDYTINGRQIPYHLIDIADPGYKYNVFEYQRDFLTAYETIKQKGCLPVLCGGTGLYLESVLKGYRLIPVPENQELRVRLAEKSLEELTAILSSYKTLHNSTDVDTVKRAIRAIEIEEYYAKTPIEEREFPQLNSLIIGVDIDRELRREKITRRLKQRLDDGMVEEVRRLLAEGIQPDDLIYYGLEYKYLTLYAIGKMTYDEMFTGLETAIHQFAKRQMTWFRGMERRGFTIHWVDASLPMEEKINFVKQKLKEFLEHHHHHH | not soluble |
| MTMTLHTKASGMALLHQIQGNELEPLNRPQLKIPLERPLGEVYLDSSKPAVYNYPEGAAYEFNAAAAANAQVYGQTGLPYGPGSEAAAFGSNGLGGFPPLNSVSPSPLMLLHPPPQLSPFLQPHGQQVPYYLENEPSGYTVREAGPPAFYRPNSDNRRQGGRERLASTNDKGSMAMESAKETRYCAVCNDYASGYHYGVWSCEGCKAFFKRSIQGHNDYMCPATNQCTIDKNRRKSCQACRLRKCYEVGMMKGGIRKDRRGGRMLKHKRQRDDGEGRGEVGSAGDMRAANLWPSPLMIKRSKKNSLALSLTADQMVSALLDAEPPILYSEYDPTRPFSEASMMGLLTNLADRELVHMINWAKRVPGFVDLTLHDQVHLLECAWLEILMIGLVWRSMEHPVKLLFAPNLLLDRNQGKCVEGMVEIFDMLLATSSRFRMMNLQGEEFVCLKSIILLNSGVYTFLSSTLKSLEEKDHIHRVLDKITDTLIHLMAKAGLTLQQQHQRLAQLLLILSHIRHMSNKGMEHLYSMKCKNVVPLYDLLLEMLDAHRLHAPTSRGGASVEETDQSHLATAGSTSSHSLQKYYITGEAEGFPATV | soluble |
| MTNDFATVLRQFVEGLDLGIKPRLDYLTRQEDLAIYPMPGGKVNNEYMDGTREISLPFEIAIKTKNQELASTVMWTINSALSNFDLKLPSLNHSYTFISLDVEKPFLNDLSDQGFYIYVLDITAHLEIEGNN | soluble |
| MTNFATTDDVILLWRQLSVDEIKRAEALLETVSDTLRLEASKVGKNLDEMILETPYFATVLKSVTVDIVARTLMTATQGEPMSQESQSALGYTWSGTYLVPGGGLFIKDSELKRLGLKKQRYGGIELYGEIERNNSYFSRQDD | not soluble |
| MTNHPIQGLMTTAMENLKQMIDVNTIIGDPVETPDGSVILTVSKVGFGFAAGGSEFMLDGQQNGHQGAQADGNGHPFGGGSGGGVSITPIAFLVVNSSGVKLLHLDESTHLYEKILDVAPQAFEKIQAMLKKNKKDGAAGQKADDFDI | not soluble |
| MTNLNYQQTHFVMSAPDIRHLPSDCGIEVAFAGRSNAGKSSALNTLTNQKSLARTSKTPGRTQLINLFEVVDGKRLVDLPGYGYAEVPEEMKRKWQRALGEYLEKRQSLQGLVVLMDIRHPLKDLDQQMIQWAVESNIQVLVLLTKADKLASGARKAQLNMVREAVLAFNGDVQVEAFSSLKKQGVDKLRQKLDSWFSELAPVEEIQDGE | not soluble |
| MTNPTRTKRCGGDVLCGIDNHFQLLLYISENHCQLETKTFFEYFLRIVNKTHDYAILENKKICISHLEHHHHHH | not soluble |
| MTNSSNLIDSLEVYVLNNPDEVKPHWVSHFIVPTANELLIKIKNKDGHSGFGLATSYTDIAPIIKPFSNGLQDLIIGEDPFCPEKIYEKIFKLTDTRLSSEKGWSREALIRISAALDIACWDLIGKASNIPLYKLFGGFRNKIPVYVTCAYYRDGKDEKELRDEIKKLVNIGHKSFKVKVGGLSIKEDVKRLEIIRDEIGDQKGLMIDVNRAWDLKTAIEGVKEFEKFKPTWIEEPVRWEDDRRTLKLLSKQTKIPLSGGESEVTIYGCRSMIEEDAIQILQFDCTMFGGFTNGKKLSALCELNHIDVAPHHDCYIHAPLVASTPAGRIVESFDDERDPLQAQLFENPHKMSEGWIHLNKKPGLGLEISDAALKKFGKLVYKNK | soluble |
| MTPRIEVAAPKEPITINMNVKIEHEIIIKADKDVEELLETRSDLFLEHHHHHH | not soluble |
| MTPVQIAAVVVTYESSSTIDACLSRLRAAEGISEIRVVDNASSDDTLEVVQRHALADARLHFIANPDNPGFATACNQGARDSQAPWLVFINPDLMIARDTLLQLYHRAAGHPAVLLGVEQVDEQGRPDAAVRRRDPDFAAMLRAPRAAANLAVPADPSRALQPVDAISGALMLMQRSLFDRLDGWDGSYRLHAEDLDLCRRARQAGALVAVANDLHVLHVRGVSSRARPFFVEWHKHRGLWRYFRKFEADRRGLLTRLGVWLAIWSHAAAQVPRLLQNKLEHHHHHH | not soluble |
| MTPYNEREVLKLLQEESTQRKGFELIVAQYSEQLYWQIRRMVLSHEDANDLLQNTFIKAWTNIDYFRAEAKLSTWLYRIALNECLTFLNRQRATTTVAIDDPEAAIVQKLESDPYYSGDQVQMLLQKALLTLPEKQRMVFNLKYYQEMKYEEMSEIFGTSVGALKASYHHAVKKIEKFLEEVD | not soluble |
| MTQCFKCKQAIGTVVSRDGPTKLYCPDCFLAYCAGAVRENAFQQCRVPSDTPLAVAVSGGPNSMMLLRELGQLRYKTRDQIRRQHLTPQRQAPAQGGKSRSTPTSSPPARSTPLASSLILLPFHLCEDELVLPLPPPLSSSTSSPSSLHAISGRHEAVNRVRSAMEEQFATLRKYVQQQPPRWVYHGEVPCGHKRTKKQQNNPTAAERTGAAHAGGANIATPELSHRGGGSTSAPSPQPRPQRQAGESGETAAATARLFDDSEIRLFRYSDLLSGTYLSELRYALHVSRLSLSDREALYARVRQQTLCRAAQRVCQEHRQRNAAAAAATAVVVGGVAHEEGIREDAAQCSEEQAPFDEHVSLEGTNSKTRSHLLLGSNAVRCATAALEALVTGAGGEGVVHGAGFRGFTHEVVCLRPLRAMLPKETIMYTRLCGIAGSYTPALCTGTATRSVHRTLEQFVLTMMTSYRTMIFNVLNTVQRLEVHPAAMQELLRGIDDASACHTHVHGEGLAEAGSTQSAGKTTRKALPARTAQLNRTDMCLAAPLHVRRDLGGVNVNEADIDSVIAMCCVCGCPASITSCYRGQNANTAVRQLEMLALNTTSAMTPRTSGASPSTVADAASASEASPTTTGCFLCYACQGLADAWPPSVFGRDSTTENDEQPGNDSTTAAGAAARHGAIASTAALFRLCALFY | not soluble |
| MTQERPSKLSFSIEETVWLNKGQEVKEILAMSLEPDIRIEEKQDHVYIKGGLRLLGEYVPTEEEATLDPTSAIQEQVSFRSVEEVTIDDEGKGSIQHFFPIDVTIPLSRIQKLDDIYVQVDSFDYDLPERSCIQLTADVSISGMTSEPPVSKQKAQSERPAAIDPLPKPPQLEPIPSTFSFEAKKPFVNEEAGAWNEGVQSRQTFKFQPADNENKLEEDVVVSNEEQAHEGEPIEESKADQAKVEESTASVQKQQEENHQQEVTSVANQDETAEGQVNEGNAIEPAMMRGEVDVEHYDSESVEEEENPTKIQLGVQREEVAIDEESQEDLGEDTDEPKGHREENALYLTKMMTNGEEEFSKLKMCIIQENESLDMIAERYDISTSHLIRFNRLTEERVEEGQILYIPVPSHQSKEGLEHHHHHH | soluble |
| MTQHQTLPQTTEGAYHYQVIRRAIELIDQTDQPISLDEIAANMGMSPAHFQRVFSRWVGVSPKRYQQYLTLGHAKTLLSERFSTLAASHAVGLSGSGRLHDLFLRWEAMSPGEFARKGAGLTIYWGWFESPFGPAIVMGTEKGICGMGFAAEMGAETAFEDLAARWPQASYVEDPMMLRPWVLQAFGAKDGALDTTPLFLIGAPFQIKVWEALLSIPTGHVTTYSEIAQAVGAPRAVRAVGTAVGRNPISWIIPCHRALRKSGGLGGYHWGIPMKRAMLAYEAVELETLEHHHHHH | not soluble |
| MTQRPWSKLQREIYDLLTPTINLQIHCTRYPMRSQNGGSTDLPRYWITLDKNVIWDYPKDFIAGNAGVRNFHGETCWYPYLTDICSISDLLREYIDTPKAELLTKQFTSDKWGLVNILRAADRRIGMRRLDQLRRKTHNIAALKIIARRSE | not soluble |
| MTQTTQSPALIASQSSWRCVQAHDREGWLALMADDVVIEDPIGKSVTNPDGSGIKGKEAVGAFFDTHIAANRLTVTCEETFPSSSPDEIAHILVLHSEFDGGFTSEVRGVFTYRVNKAGLITNMRGYWNLDMMTFGNQE | soluble |
| MTRDLAPALQALSPLLGSWAGRGAGKYPTIRPFEYLEEVVFAHVGKPFLTYTQQTRAVADGKPLHSETGYLRVCRPGCVELVLAHPSGITEIEVGTYSVTGDVIELELSTRADGSIGLAPTAKEVTALDRSYRIDGDELSYSLQMRAVGQPLQDHLAAVLHRQRRSHHHHHH | soluble |
| MTREHPPEPLDFFIWTVEDVGSWLEEINLGGYRQIFKENGVNGEYLESMSVFTTEQILHFIRRHHMKWGDFITLCKELRRIKVACLKGEQRVRRPWWAPSCLSVVFVKAAKRNRQSRVVSLKLES | not soluble |
| MTRLLYYEDAYLKEAKAKVLEVKDNALLLDQTIFYPTGGGQPHDRGWINGVEVLDVYKDEEGNVWHVVKELEKFKPGDEVELKLDWEYRYKLMRIHSALHLLENVLDQILGKGNWEVVGSGMTHEKGRLDVGYPENLNAYKEKIIELFNRYVDEGGEIKIWWEGEKRYTQIRDFDPIPCGGTHVKDIREIGHIKKLKRSSIGRGKQRLEIWLEDLEHHHHHH | not soluble |
| MTRSGNTRNGKYMGEDKRRYHTITNILQYNLIPDFFTIFAKYCITFKNMTMEKTFAQISELFDQFSKDASLQVEKGNKAAGTRARKASLELEKLLKRFRKESLEASK | not soluble |
